# Source: patent publication US20160185837A1 (Medimmune Limited, priority 2013, published 2016)
# Columns and labels:
# [1] = biological target: T1, human GLP-1 receptor (hGLP-1r) (Homo sapiens, UniProt P43220); assay: BSA-cAMP assay, cells expressing human GLP-1 receptor; type: cell-based; conditions: Batch 1; BSA-cAMP assay; read-out: hGLP1r cAMP activity EC50
# T1 construct: expressed in transfected cells
# Method: (§1) One basic cAMP assays was performed, differing in the medium used for the assay, the “BSA-cAMP assay”:
# (§2) BSA-based assay medium: 0.1% bovine serum albumin (BSA) in
# (§3) In certain aspects, the assay can also be carried out in medium supplemented with serum albumin that corresponds to the receptor being tested, e.g., human serum albumin for testing cAMP activity at hGIPr or hGLP-1r, rat serum albumin for testing cAMP activity at rGIPr or rGLP-1r, and so on. […] All sample dilutions were made in duplicate.
# (§4) A frozen cryo-vial of cells expressing the receptor of interest was thawed rapidly in a water-bath, transferred to pre-warmed assay media and spun at 240×g for 5 minutes. Cells were re-suspended in assay buffer at an optimized concentration (e.g., hGLP-1r and hGIPr cells at 0.5×10^5 cells/ml).
# (§5) To this, 5 μL cell suspension was added and the plates incubated at room temperature for 30 minutes.
# (§6) cAMP levels were measured using a commercially available cAMP dynamic 2 HTRF kit (Cisbio, Cat #62AM4PEJ), following the two step protocol as per manufacturer's recommendations. In brief; anti-cAMP cryptate (donor fluorophore) and cAMP-d2 (acceptor fluorophore) were made up separately by diluting each 1/20 in conjugate & lysis buffer provided in the kit. 5 μL anti-cAMP cryptate was added to all wells of the assay plate, and 5 μL cAMP-d2 added to all wells except non-specific binding (NSB) wells, to which conjugate and lysis buffer was added. […] Data was transformed to % Delta F as described in manufacturer's guidelines and then transformed to percent activation of maximal native agonist response and analysed by 4-parameter logistic fit to determine EC50 values.
# (§7) We used unconstrained 4 parameter logistic fit of data, curve mid-point to determine EC50. This was tested on two occasions, not two batches.
# [2] = biological target: T2, human GIP receptor (hGIPr) (Homo sapiens, UniProt P48546); assay: BSA-cAMP assay, cells expressing human GIP receptor; type: cell-based; conditions: Batch 1; BSA-cAMP assay; read-out: hGIPr cAMP activity EC50
# T2 construct: expressed in transfected cells
# T2 sequence (P48546 22-466): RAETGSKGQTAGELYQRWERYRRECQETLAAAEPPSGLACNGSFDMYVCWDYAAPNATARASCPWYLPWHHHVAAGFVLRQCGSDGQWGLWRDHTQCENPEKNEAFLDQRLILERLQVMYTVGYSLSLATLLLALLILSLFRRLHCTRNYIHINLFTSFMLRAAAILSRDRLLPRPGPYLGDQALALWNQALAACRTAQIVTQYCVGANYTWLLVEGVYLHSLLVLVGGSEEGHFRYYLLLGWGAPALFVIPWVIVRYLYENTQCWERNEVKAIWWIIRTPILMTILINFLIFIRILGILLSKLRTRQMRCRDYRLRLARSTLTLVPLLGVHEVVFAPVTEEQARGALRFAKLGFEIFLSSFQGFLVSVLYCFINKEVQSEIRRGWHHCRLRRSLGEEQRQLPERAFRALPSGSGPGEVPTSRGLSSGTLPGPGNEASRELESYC
# Method: For human GIPr, two different lines were used, shown as “hGIPr” and “hGIPr (C3)” in Table 11.
# as §1, §2, §3, §4, §5, §6, §7
# [3] = biological target: T3, human glucagon receptor (GCGr) (Homo sapiens, UniProt P47871); assay: BSA-cAMP assay, cells expressing human glucagon receptor; type: cell-based; conditions: Batch 1, read-out: hGCGr cAMP activity EC50
# T3 construct: expressed in transfected cells; host or cells: HEK293s or CHO cells
# Method: as §1, §2, §3, §4, §5, §6, §7
# [4] = biological target: T4, mouse GLP-1 receptor (mGLP-1r) (Mus musculus, UniProt O35659); assay: BSA-cAMP assay, cells expressing mouse GLP-1 receptor; type: cell-based; conditions: Batch 1; BSA-cAMP assay; read-out: mGLP1r cAMP activity EC50
# T4 construct: expressed in transfected cells; host or cells: HEK293s or CHO cells
# T4 sequence (O35659 22-463): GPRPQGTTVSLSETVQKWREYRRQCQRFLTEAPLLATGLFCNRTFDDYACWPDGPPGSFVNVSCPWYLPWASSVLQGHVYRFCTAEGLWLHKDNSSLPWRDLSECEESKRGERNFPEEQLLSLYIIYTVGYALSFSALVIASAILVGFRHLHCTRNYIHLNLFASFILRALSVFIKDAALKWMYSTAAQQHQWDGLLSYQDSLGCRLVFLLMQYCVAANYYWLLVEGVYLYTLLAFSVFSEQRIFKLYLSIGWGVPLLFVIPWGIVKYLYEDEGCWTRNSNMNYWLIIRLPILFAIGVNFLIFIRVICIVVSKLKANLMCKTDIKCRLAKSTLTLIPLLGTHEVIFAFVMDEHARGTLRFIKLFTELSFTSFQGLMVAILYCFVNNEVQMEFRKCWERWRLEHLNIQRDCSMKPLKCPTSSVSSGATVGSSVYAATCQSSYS
# Method: as §1, §2, §3, §4, §5, §6, §7
# (§8) In order to be able to carry out in vivo studies in rodents, IP088 was tested for potency against the mouse receptors mGIPr and mGLP-1r as well as the rat receptors rGIPr and rGLP-1r, using cells expressing the respective receptors in the cAMP assay described above.
# [5] = biological target: T5, mouse GIP receptor (mGIPr) (Mus musculus, UniProt Q0P543); assay: BSA-cAMP assay, cells expressing mouse GIP receptor; type: cell-based; conditions: Batch 1; BSA-cAMP assay; read-out: mGIPr cAMP activity EC50
# T5 construct: expressed in transfected cells; host or cells: HEK293s or CHO cells
# T5 sequence (Q0P543 19-460): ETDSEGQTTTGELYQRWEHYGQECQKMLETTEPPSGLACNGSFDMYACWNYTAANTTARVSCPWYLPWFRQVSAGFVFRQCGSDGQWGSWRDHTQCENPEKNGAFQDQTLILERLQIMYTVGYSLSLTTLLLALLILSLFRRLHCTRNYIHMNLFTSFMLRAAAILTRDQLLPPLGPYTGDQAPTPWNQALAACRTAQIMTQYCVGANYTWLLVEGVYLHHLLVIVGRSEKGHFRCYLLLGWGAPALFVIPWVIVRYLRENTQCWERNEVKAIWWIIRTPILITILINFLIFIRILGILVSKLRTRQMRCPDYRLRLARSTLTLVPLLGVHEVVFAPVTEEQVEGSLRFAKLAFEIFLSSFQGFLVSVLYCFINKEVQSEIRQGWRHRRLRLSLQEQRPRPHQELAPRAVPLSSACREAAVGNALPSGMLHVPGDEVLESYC
# Method: as §1, §2, §3, §4, §5, §6, §7, §8
# [6] = biological target: T6, rat GLP-1 receptor (rGLP-1r) (Rattus norvegicus, UniProt P32301); assay: BSA-cAMP assay, cells expressing rat GLP-1 receptor; type: cell-based; conditions: Batch 1; BSA-cAMP assay; read-out: rGLP1r cAMP activity EC50
# T6 construct: expressed in transfected cells; host or cells: HEK293s or CHO cells
# T6 sequence (P32301 22-463): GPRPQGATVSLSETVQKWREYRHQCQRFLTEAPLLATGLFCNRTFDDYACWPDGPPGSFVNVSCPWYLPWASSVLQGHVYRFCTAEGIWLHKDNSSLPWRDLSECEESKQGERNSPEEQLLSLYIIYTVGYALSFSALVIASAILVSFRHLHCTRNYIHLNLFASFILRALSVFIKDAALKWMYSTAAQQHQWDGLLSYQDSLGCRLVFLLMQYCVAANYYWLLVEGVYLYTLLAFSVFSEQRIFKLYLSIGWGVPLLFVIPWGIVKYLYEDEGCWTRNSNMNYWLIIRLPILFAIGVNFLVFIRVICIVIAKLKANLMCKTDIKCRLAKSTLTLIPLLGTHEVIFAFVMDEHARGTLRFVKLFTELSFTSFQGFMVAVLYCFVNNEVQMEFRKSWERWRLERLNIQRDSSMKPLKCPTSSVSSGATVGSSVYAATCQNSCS
# Method: as §1, §2, §3, §4, §5, §6, §7, §8
# [7] = biological target: T7, rat GIP receptor (rGIPr) (Rattus norvegicus, UniProt P43219); assay: BSA-cAMP assay, cells expressing rat GIP receptor; type: cell-based; conditions: Batch 1; BSA-cAMP assay; read-out: rGIPr cAMP activity EC50
# T7 construct: expressed in transfected cells; host or cells: HEK293s or CHO cells
# T7 sequence (P43219 19-455): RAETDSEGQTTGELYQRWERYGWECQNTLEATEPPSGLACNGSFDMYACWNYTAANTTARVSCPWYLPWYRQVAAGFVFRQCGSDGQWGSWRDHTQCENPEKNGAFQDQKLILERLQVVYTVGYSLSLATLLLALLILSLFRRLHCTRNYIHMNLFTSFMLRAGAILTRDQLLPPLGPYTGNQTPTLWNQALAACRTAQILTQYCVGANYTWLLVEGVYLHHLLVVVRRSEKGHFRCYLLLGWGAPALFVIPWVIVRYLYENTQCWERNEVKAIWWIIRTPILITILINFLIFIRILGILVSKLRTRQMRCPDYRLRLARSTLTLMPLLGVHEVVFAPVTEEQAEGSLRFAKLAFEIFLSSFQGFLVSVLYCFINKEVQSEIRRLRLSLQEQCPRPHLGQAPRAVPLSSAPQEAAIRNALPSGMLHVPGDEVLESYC
# Method: as §1, §2, §3, §4, §5, §6, §7, §8
# [8] = tested on: cyno GCGr (cGCGr); assay: cAMP assay, cells expressing cyno GCGr, 4.2% cyno serum albumin; type: cell-based, cynomolgus monkey; conditions: culture medium containing 4.2% cyno serum albumin
# Description: In certain aspects, the assay can also be carried out in medium supplemented with serum albumin that corresponds to the receptor being tested, e.g., human serum albumin for testing cAMP activity at hGIPr or hGLP-1r, rat serum albumin for testing cAMP activity at rGIPr or rGLP-1r, and so on. Low protein binding 384-well plates (Greiner #781280) were used to perform eleven 1 in 5 serial dilutions of test samples that were made in assay medium. All sample dilutions were made in duplicate.
# A frozen cryo-vial of cells expressing the receptor of interest was thawed rapidly in a water-bath, transferred to pre-warmed assay media and spun at 240×g for 5 minutes. Cells were re-suspended in assay buffer at an optimized concentration (e.g., hGLP-1r and hGIPr cells at 0.5×10^5 cells/ml). […]
# cAMP levels were measured using a commercially available cAMP dynamic 2 HTRF kit (Cisbio, Cat #62AM4PEJ), following the two step protocol as per manufacturer's recommendations. […] Plates were incubated at room temperature for one hour and then read on an Envision (Perkin Elmer) using excitation wavelength of 320 nm and emission wavelengths of 620 nm & 665 nm. Data was transformed to % Delta F as described in manufacturer's guidelines and then transformed to percent activation of maximal native agonist response and analysed by 4-parameter logistic fit to determine EC50 values.
# T3 sequence (P47871 26-477): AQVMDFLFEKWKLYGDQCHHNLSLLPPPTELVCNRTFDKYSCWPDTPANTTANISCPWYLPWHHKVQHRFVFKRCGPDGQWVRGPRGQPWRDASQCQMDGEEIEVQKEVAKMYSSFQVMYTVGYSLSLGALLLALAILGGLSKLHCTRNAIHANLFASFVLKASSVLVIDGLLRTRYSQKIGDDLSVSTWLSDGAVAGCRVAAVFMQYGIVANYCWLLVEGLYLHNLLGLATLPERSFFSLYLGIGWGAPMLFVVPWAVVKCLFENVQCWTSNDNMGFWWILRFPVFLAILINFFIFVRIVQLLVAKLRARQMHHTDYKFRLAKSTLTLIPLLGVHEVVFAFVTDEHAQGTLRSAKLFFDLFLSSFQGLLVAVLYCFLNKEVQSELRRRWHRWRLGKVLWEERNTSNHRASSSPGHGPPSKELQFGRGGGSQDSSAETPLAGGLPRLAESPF
# T1 sequence (P43220 24-463): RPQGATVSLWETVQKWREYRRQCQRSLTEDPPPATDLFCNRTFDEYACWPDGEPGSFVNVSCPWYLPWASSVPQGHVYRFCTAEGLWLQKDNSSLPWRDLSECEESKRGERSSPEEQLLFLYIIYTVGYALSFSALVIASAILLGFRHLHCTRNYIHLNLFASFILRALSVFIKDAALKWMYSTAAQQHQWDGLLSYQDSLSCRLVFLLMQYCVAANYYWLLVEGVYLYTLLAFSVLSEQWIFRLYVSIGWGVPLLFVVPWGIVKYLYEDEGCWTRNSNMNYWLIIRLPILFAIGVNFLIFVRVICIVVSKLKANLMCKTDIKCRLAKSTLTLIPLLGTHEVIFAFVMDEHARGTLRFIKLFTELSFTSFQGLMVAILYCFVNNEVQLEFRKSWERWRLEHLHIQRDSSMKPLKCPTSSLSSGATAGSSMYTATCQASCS
substance,measurement,setting,value
IP386 (YSEGTFISDYSIAMDKIHQQDFVNWLLAQKGGGGGSGGGGSGGGGSGGGGSACPPC),EC50,[1],> 9130 nM
same,EC50,[2],0.0034 nM
same,EC50,[3],540 nM
same,EC50,[4],> 16600 nM
same,EC50,[5],0.03 nM
same,EC50,[6],> 16600 nM
same,EC50,[7],0.0085 nM
IP395 (YSEGTFTSDYSKLLERQAIDEFIAHLLKGGGGGGGSGGGGSGGGGSGGGGSACPPC),EC50,[1],0.12 nM
same,EC50,[2],0.012 nM
same,EC50,[3],380 nM
same,EC50,[4],3.8 nM
same,EC50,[5],3.3 nM
same,EC50,[6],0.016 nM
same,EC50,[7],0.063 nM
"hGCG: native human glucagon, comparator in cAMP assays",EC50,[8],0.0036 nM
